From patent US20230137562A1, “TAU AGGREGATION INHIBITORS” (priority 2017, published 2023)
Values joined by “and” are separate entries in the source; they are usually repeats but may differ in a detail not shown here. Identical values can stand only once. Square brackets hold non-standard residues; d marks the D form. Ends that are not written are not given here. NMeR = CN[C@@H](CCCNC(=N)N)C(=O)O; hArg = N=C(N)NCCCC[C@H](N)C(=O)O; Orn = NCCC[C@H](N)C(=O)O

T1: Ac-VQIINK-NH2
T1 peptide: Ac-VQIINK-NH2


The binders below were run against His-Tau40P301L Tau (UniProt P10636-8 1-441) (assay: cell-based or functional assay).
Sequence of His-Tau40P301L Tau (P10636 other isoform, or with tags, fused parts or gaps limits assumed): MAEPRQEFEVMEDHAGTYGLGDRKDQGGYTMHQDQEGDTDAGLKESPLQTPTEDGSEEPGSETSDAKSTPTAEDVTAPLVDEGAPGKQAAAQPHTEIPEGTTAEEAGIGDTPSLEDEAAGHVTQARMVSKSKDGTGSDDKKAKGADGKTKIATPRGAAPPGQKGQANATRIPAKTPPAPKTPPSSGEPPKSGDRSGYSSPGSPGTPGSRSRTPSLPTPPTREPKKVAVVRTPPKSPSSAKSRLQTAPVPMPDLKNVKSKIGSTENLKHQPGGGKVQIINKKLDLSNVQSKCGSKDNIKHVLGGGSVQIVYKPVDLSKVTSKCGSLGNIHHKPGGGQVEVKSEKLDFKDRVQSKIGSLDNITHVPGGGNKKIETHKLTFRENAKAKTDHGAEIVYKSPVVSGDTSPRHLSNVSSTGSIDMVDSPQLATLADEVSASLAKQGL
WRLKVRWW was tested, and the “IC50 (µM), Tau40 assay (ThT)” value was 1.24 µM.
With WWIRIRYWL the “IC50 (µM), Tau40 assay (ThT)” value was 1.2 µM and 1.31 µM.
WWIRLRYW was tested, and the “IC50 (µM), Tau40 assay (ThT)” value was 1.32 µM and 1.53 µM.
For WRIRIRL, the “IC50 (µM), Tau40 assay (ThT)” value was 1.52 µM.
WRFRLYLR was tested, and the “IC50 (µM), Tau40 assay (ThT)” value was 47 µM.
In the case of WRIRLYWW, the “IC50 (µM), Tau40 assay (ThT)” value is reported as 1.15 µM.
For WY[hArg]L[hArg]I[hArg]W [WY(hR)L(hR)I(hR)W], the “IC50 (µM), Tau40 assay (ThT)” value was 1.74 µM.
For LRIRIRL, the “IC50 (µM), Tau40 assay (ThT)” value was 1.82 µM.
For WKVWVRYW, the “IC50 (µM), Tau40 assay (ThT)” value was 2.09 µM.
For WRLWFWWR, the “IC50 (µM), Tau40 assay (ThT)” value was 1.82 µM.
With FRIRIRW the “IC50 (µM), Tau40 assay (ThT)” value was 1.47 µM.
In the case of WRIWIRRW, the “IC50 (µM), Tau40 assay (ThT)” value is reported as 1.68 µM.
In the case of LRIRIRW, the “IC50 (µM), Tau40 assay (ThT)” value is reported as 2.07 µM.
In the case of IWLRLW, the “IC50 (µM), Tau40 assay (ThT)” value is reported as 9.93 µM.
With WWIRIRYWR the “IC50 (µM), Tau40 assay (ThT)” value was 1.48 µM and 1.58 µM.
In the case of WKIKLKYW, the “IC50 (µM), Tau40 assay (ThT)” value is reported as 1.3 µM and 1.32 µM.
In the case of WRARARW, the “IC50 (µM), Tau40 assay (ThT)” value is reported as 12 µM.
WRIRLWYW was tested, and the “IC50 (µM), Tau40 assay (ThT)” value was 0.68 µM.
For HRIWIRYW, the “IC50 (µM), Tau40 assay (ThT)” value was 1.87 µM.
With RIRIRW the “IC50 (µM), Tau40 assay (ThT)” value was 10.9 µM.
In the case of WRLRIHW, the “IC50 (µM), Tau40 assay (ThT)” value is reported as 1.82 µM.
For WAIRIRW, the “IC50 (µM), Tau40 assay (ThT)” value was 1.72 µM.
With RIRILIL the “IC50 (µM), Tau40 assay (ThT)” value was 2.15 µM.
WRI[NMeR]IRW [WRI(NMe)RIRW] was tested, and the “IC50 (µM), Tau40 assay (ThT)” value was 0.57 µM.
For WRITIRW, the “IC50 (µM), Tau40 assay (ThT)” value was 1.99 µM.
With WYRIWVRYW the “IC50 (µM), Tau40 assay (ThT)” value was 1.86 µM and 2.08 µM.
In the case of RYRIWIW, the “IC50 (µM), Tau40 assay (ThT)” value is reported as 1.61 µM.
WRIRWRYW was tested, and the “IC50 (µM), Tau40 assay (ThT)” value was 0.42 µM and 0.41 µM.
With WRIFIRW the “IC50 (µM), Tau40 assay (ThT)” value was 2.01 µM.
With WRIWLRYW the “IC50 (µM), Tau40 assay (ThT)” value was 2.05 µM.
For WRIRIRYW, the “IC50 (µM), Tau40 assay (ThT)” value was 1.22 µM and 1.33 µM and 1.37 µM.
RIRLEWW was tested, and the “IC50 (µM), Tau40 assay (ThT)” value was 9.8 µM.
In the case of RWRIWIW, the “IC50 (µM), Tau40 assay (ThT)” value is reported as 0.76 µM.
With RIWLRLW the “IC50 (µM), Tau40 assay (ThT)” value was 2.14 µM.
For WWIRIRYW, the “IC50 (µM), Tau40 assay (ThT)” value was 1.1 µM and 1.38 µM.
WIRIRIW was tested, and the “IC50 (µM), Tau40 assay (ThT)” value was 2.03 µM and 2.04 µM.
For WKLKLRWW, the “IC50 (µM), Tau40 assay (ThT)” value was 2.06 µM.
WRIRIRF was tested, and the “IC50 (µM), Tau40 assay (ThT)” value was 10.8 µM.
For WY[Orn]IWI[Orn]W [WYOIWIOW], the “IC50 (µM), Tau40 assay (ThT)” value was 1.92 µM.
With IWIRLW the “IC50 (µM), Tau40 assay (ThT)” value was 11.4 µM.
IRLWIW was tested, and the “IC50 (µM), Tau40 assay (ThT)” value was 9.6 µM.
WYRIRLRYW was tested, and the “IC50 (µM), Tau40 assay (ThT)” value was 1.13 µM and 1.21 µM.
With RIRIFIF the “IC50 (µM), Tau40 assay (ThT)” value was 1.96 µM.
In the case of WRIRLWYR, the “IC50 (µM), Tau40 assay (ThT)” value is reported as 1.31 µM.
With WRIQIRW the “IC50 (µM), Tau40 assay (ThT)” value was 1.7 µM and 2.34 µM.
In the case of WWIRIRYWK, the “IC50 (µM), Tau40 assay (ThT)” value is reported as 1.02 µM and 1.12 µM.
WRIRLRYW was tested, and the “IC50 (µM), Tau40 assay (ThT)” value was 1.02 µM and 1.32 µM.
With RLRIWIW the “IC50 (µM), Tau40 assay (ThT)” value was 1.21 µM.
In the case of RRIWIRYW, the “IC50 (µM), Tau40 assay (ThT)” value is reported as 1.96 µM.
In the case of ERIRIRW, the “IC50 (µM), Tau40 assay (ThT)” value is reported as 12.2 µM.
For RIWIRLW, the “IC50 (µM), Tau40 assay (ThT)” value was 2.06 µM.
With WLKVQVRLW the “IC50 (µM), Tau40 assay (ThT)” value was 1.86 µM.

Molecular target: T1, Ac-VQIINK-NH2
Experiment: cell-based or functional assay
In the case of WRLKVRWW, the “IC50 (µM), VQIINK Inhibition (ThT)” value is reported as 3.34 µM.
In the case of WWIRIRYWL, the “IC50 (µM), VQIINK Inhibition (ThT)” value is reported as 4.88 µM.
WWIRLRYW was tested, and the “IC50 (µM), VQIINK Inhibition (ThT)” value was 3.24 µM.
For WRIRIRL, the “IC50 (µM), VQIINK Inhibition (ThT)” value was 7.38 µM.
WRFRLYLR was tested, and the “IC50 (µM), VQIINK Inhibition (ThT)” value was 2.81 µM.
With WRIRLYWW the “IC50 (µM), VQIINK Inhibition (ThT)” value was 2.35 µM.
For WY[hArg]L[hArg]I[hArg]W [WY(hR)L(hR)I(hR)W], the “IC50 (µM), VQIINK Inhibition (ThT)” value was 2.95 µM.
LRIRIRL was tested, and the “IC50 (µM), VQIINK Inhibition (ThT)” value was 17.8 µM.
In the case of WKVWVRYW, the “IC50 (µM), VQIINK Inhibition (ThT)” value is reported as 4.93 µM.
WRLWFWWR was tested, and the “IC50 (µM), VQIINK Inhibition (ThT)” value was 1.19 µM.
With FRIRIRW the “IC50 (µM), VQIINK Inhibition (ThT)” value was 4.04 µM.
WRIWIRRW was tested, and the “IC50 (µM), VQIINK Inhibition (ThT)” value was 3.85 µM.
With LRIRIRW the “IC50 (µM), VQIINK Inhibition (ThT)” value was 4.31 µM.
IWLRLW was tested, and the “IC50 (µM), VQIINK Inhibition (ThT)” value was 2.29 µM.
WWIRIRYWR was tested, and the “IC50 (µM), VQIINK Inhibition (ThT)” value was 1.79 µM.
For WKIKLKYW, the “IC50 (µM), VQIINK Inhibition (ThT)” value was 2.82 µM.
In the case of WRARARW, the “IC50 (µM), VQIINK Inhibition (ThT)” value is reported as 29.1 µM.
WRIRLWYW was tested, and the “IC50 (µM), VQIINK Inhibition (ThT)” value was 1.98 µM.
With HRIWIRYW the “IC50 (µM), VQIINK Inhibition (ThT)” value was 4.3 µM.
With RIRIRW the “IC50 (µM), VQIINK Inhibition (ThT)” value was 10.8 µM.
In the case of WRLRIHW, the “IC50 (µM), VQIINK Inhibition (ThT)” value is reported as 3.2 µM.
For WAIRIRW, the “IC50 (µM), VQIINK Inhibition (ThT)” value was 1.94 µM.
RIRILIL was tested, and the “IC50 (µM), VQIINK Inhibition (ThT)” value was 1.64 µM.
With WRI[NMeR]IRW [WRI(NMe)RIRW] the “IC50 (µM), VQIINK Inhibition (ThT)” value was 3.84 µM.
WRITIRW was tested, and the “IC50 (µM), VQIINK Inhibition (ThT)” value was 2.64 µM.
In the case of WYRIWVRYW, the “IC50 (µM), VQIINK Inhibition (ThT)” value is reported as 2.22 µM.
With RYRIWIW the “IC50 (µM), VQIINK Inhibition (ThT)” value was 5.74 µM.
In the case of WRIRWRYW, the “IC50 (µM), VQIINK Inhibition (ThT)” value is reported as 3.46 µM.
In the case of WRIFIRW, the “IC50 (µM), VQIINK Inhibition (ThT)” value is reported as 9.13 µM.
With WRIWLRYW the “IC50 (µM), VQIINK Inhibition (ThT)” value was 2.32 µM.
In the case of WRIRIRYW, the “IC50 (µM), VQIINK Inhibition (ThT)” value is reported as 2.44 µM and 3.77 µM.
For RIRLEWW, the “IC50 (µM), VQIINK Inhibition (ThT)” value was 3.89 µM.
In the case of RWRIWIW, the “IC50 (µM), VQIINK Inhibition (ThT)” value is reported as 3.44 µM.
In the case of RIWLRLW, the “IC50 (µM), VQIINK Inhibition (ThT)” value is reported as 2.01 µM.
With WWIRIRYW the “IC50 (µM), VQIINK Inhibition (ThT)” value was 1.92 µM.
For WIRIRIW, the “IC50 (µM), VQIINK Inhibition (ThT)” value was 0.81 µM and 1.72 µM.
WKLKLRWW was tested, and the “IC50 (µM), VQIINK Inhibition (ThT)” value was 0.82 µM.
With WRIRIRF the “IC50 (µM), VQIINK Inhibition (ThT)” value was 42.8 µM.
With WY[Orn]IWI[Orn]W [WYOIWIOW] the “IC50 (µM), VQIINK Inhibition (ThT)” value was 2.45 µM.
In the case of IWIRLW, the “IC50 (µM), VQIINK Inhibition (ThT)” value is reported as 2.12 µM.
For IRLWIW, the “IC50 (µM), VQIINK Inhibition (ThT)” value was 1.83 µM.
In the case of WYRIRLRYW, the “IC50 (µM), VQIINK Inhibition (ThT)” value is reported as 2.98 µM.
With RIRIFIF the “IC50 (µM), VQIINK Inhibition (ThT)” value was 2.87 µM.
In the case of WRIRLWYR, the “IC50 (µM), VQIINK Inhibition (ThT)” value is reported as 1.7 µM.
WRIQIRW was tested, and the “IC50 (µM), VQIINK Inhibition (ThT)” value was 2.17 µM.
WWIRIRYWK was tested, and the “IC50 (µM), VQIINK Inhibition (ThT)” value was 1.89 µM.
For WRIRLRYW, the “IC50 (µM), VQIINK Inhibition (ThT)” value was 4.13 µM.
For RLRIWIW, the “IC50 (µM), VQIINK Inhibition (ThT)” value was 2.04 µM.
In the case of RRIWIRYW, the “IC50 (µM), VQIINK Inhibition (ThT)” value is reported as 5.61 µM.
For ERIRIRW, the “IC50 (µM), VQIINK Inhibition (ThT)” value was 5.98 µM.
RIWIRLW was tested, and the “IC50 (µM), VQIINK Inhibition (ThT)” value was 2.31 µM.
For WLKVQVRLW, the “IC50 (µM), VQIINK Inhibition (ThT)” value was 1.71 µM.
